Measured values as given in article PMC12591191, “SIRT6 Lysine‐Demyristoylates ATF2 to Ameliorate Vascular Injury via PRKCD/VE‐Cadherin Pathway Regulating Vascular Endothelial Barrier” (Advanced Science, 2025).
Where no end group is shown, it is not given here. The star is where a group is joined. Biotin = O=C1N[C@H]2[C@H](CS[C@H]2CCCCC(=O)*)N1; Myristoyl = CCCCCCCCCCCCCC(=O)*

How the values were obtained:
Experiment in all cases: BLI; Octet Red96, 96 well plates, PBS-T buffer (1X PBS, 0.05% tween-20); 120 µM biotinylated peptide attached to the sensor; analytes (SIRT6/SIRT6 mutants) from 0.18 to 5.5 µM; also run with cofactors (5 mM Mg2+, Zn2+, ATP, ADP, AMP, cAMP, NAD+)
Conditions in all cases: both partners purified
[1] = biological target: T1, Wild-type SIRT6 (Sirtuin 6) (human, UniProt Q8N6T7 1-355)
T1 construct: human SIRT6, full length (1-355aa), from pUC57-SIRT6 into pET28a; no tag cleavage is described; also called SIRT6 WT; source: E. coli ArcticExpress (DE3), purified (Ni Sepharose); not shown: His-tag, N-terminal, kept; Flag, C-terminal, kept
T1 sequence (Q8N6T7 whole entry): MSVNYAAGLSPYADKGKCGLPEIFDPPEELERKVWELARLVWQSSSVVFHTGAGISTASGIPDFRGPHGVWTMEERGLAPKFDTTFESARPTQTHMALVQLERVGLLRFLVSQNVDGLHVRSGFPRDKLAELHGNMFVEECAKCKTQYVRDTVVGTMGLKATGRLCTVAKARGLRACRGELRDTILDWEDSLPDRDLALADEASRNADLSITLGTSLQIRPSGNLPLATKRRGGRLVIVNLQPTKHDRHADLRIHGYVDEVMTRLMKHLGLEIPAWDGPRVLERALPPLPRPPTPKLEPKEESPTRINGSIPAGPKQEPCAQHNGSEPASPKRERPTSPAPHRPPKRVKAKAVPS

SIRT6 H133Y = biological target: T2, SIRT6 H133Y (human, UniProt Q8N6T7 1-355, H133Y)
T2 construct: human SIRT6, full length (1-355aa), pET28a-SIRT6H133Y; also called dSIRT6; dSIRT6 (H133Y); source: E. coli ArcticExpress (DE3), purified (Ni Sepharose); not shown: His-tag, N-terminal, kept; Flag, C-terminal, kept
T2 sequence (Q8N6T7 whole entry H133Y): as the sequence (Q8N6T7 whole entry) above, with H133Y counted along it

SIRT6 S56Y = biological target: T3, SIRT6 S56Y (human, UniProt Q8N6T7 1-355, S56Y)
T3 construct: human SIRT6, full length (1-355aa), pET28a-SIRT6S56Y; also called dSIRT6 variant; source: E. coli ArcticExpress (DE3), purified (Ni Sepharose); not shown: His-tag, N-terminal, kept; Flag, C-terminal, kept
T3 sequence (Q8N6T7 whole entry S56Y): as the sequence (Q8N6T7 whole entry) above, with S56Y counted along it

SIRT6 R65A = biological target: T4, SIRT6 R65A (human, UniProt Q8N6T7 1-355, R65A)
T4 construct: human SIRT6, full length (1-355aa), pET28a-SIRT6R65A; also called dSIRT6 variant; source: E. coli ArcticExpress (DE3), purified (Ni Sepharose); not shown: His-tag, N-terminal, kept; Flag, C-terminal, kept
T4 sequence (Q8N6T7 whole entry R65A): as the sequence (Q8N6T7 whole entry) above, with R65A counted along it

B1: B-H3K9^Myr-5R (biotin-KQTARK^MyrSTGGKARRRRR) (peptide)
peptide: Biotin-KQTARK(Myristoyl)STGGKARRRRR
notes: histone H3 N-terminal stretch around K9; five arginine residues added at the C-terminus so that the peptide is soluble in water; also called myristoylated peptide; source: synthetic peptide (Boster Biological Technology)
- Kd [1]: 8.1 ± 0.96 µM
- binding result (SIRT6 H133Y): binds
- binding result (SIRT6 S56Y): binds
- binding result (SIRT6 R65A): binds
